B1: DLC1 (parent)
chain: HVTHWMGQPFNSDDRNTACHHGLV
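Note: lentivirally expressed fusions sorted by FACS into six bins by GFP to DsRed ratio, PSI derived from sequencing read proportions per bin multiplied by bin number.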

Variants of B1 are the subject of the data set. Nature of the data set: protein stability index of a GFP-peptide fusion (GPS, HEK-293T) (PSI 1-6); higher = more stable. The conditions noted are these: c terminus: a fixed tail appended.
Take HVTHWMGQPFRSDDRNTACHHGLV [N11R]: the protein stability index came out at 2.17.

For HVTHWMGQPFMSDDRNTACHHGLV [N11M], the protein stability index is 2.07.

HVTHWMGQPFQSDDRNTACHHGLV [N11Q]: the protein stability index is 2.23.

HVTHWMGQPFISDDRNTACHHGLV [N11I]: the protein stability index is 1.94.

As to HVTHWMGQPFFSDDRNTACHHGLV [N11F], the protein stability index turned out to be 1.65.

On to HVTHWMGQPFGSDDRNTACHHGLV [N11G], for which the protein stability index was found to be 2.13.

Consider HVTHWMGQPFNSDDRNTATHHGLV [C19T], for which the protein stability index was 2.61.

On to HVTHWMGQPFNSDDRNTAYHHGLV [C19Y], for which the protein stability index worked out at 1.8.

Regarding HVTHWMGQPFNSDDRNTAHHHGLV [C19H], the protein stability index worked out at 2.13.

Take HVTHWMGQPFNSDDRNTASHHGLV [C19S]: the protein stability index was found to be 2.41.

For HVTHWMGQPFNSDDRNTAAHHGLV [C19A], the protein stability index amounted to 2.5.

Regarding HVTHWMGQPFNSDDRNTALHHGLV [C19L], the protein stability index was 2.02.

For HVTHWMGQPFNSDDRNTAEHHGLV [C19E], the protein stability index was 2.92.

With HVTHWMGQPFNSDDRNTAMHHGLV [C19M], the protein stability index amounted to 2.31.

Regarding HVTHWMGQPFNSDDRNTAPHHGLV [C19P], the protein stability index is 2.43.

Consider HVTHWMGQPFNSRDRNTACHHGLV [D13R], for which the protein stability index was found to be 1.62.

Take HVTHWMGQPFNSADRNTACHHGLV [D13A]: the protein stability index turned out to be 1.48.

For HVTHWMGQPFNSVDRNTACHHGLV [D13V], the protein stability index stood at 1.37.

Regarding HVTHWMGQPFNSGDRNTACHHGLV [D13G], the protein stability index stood at 2.

Take HVTHWMGQPFNSLDRNTACHHGLV [D13L]: the protein stability index stood at 2.05.

Consider HVTHWMGQPFNSTDRNTACHHGLV [D13T], for which the protein stability index turned out to be 1.94.

For HVTHWMGQPFNSQDRNTACHHGLV [D13Q], the protein stability index is 1.62.

HVTHWMGQPFNSFDRNTACHHGLV [D13F]: the protein stability index amounted to 1.81.

As for HVTHWMGQPFNSWDRNTACHHGLV [D13W], the protein stability index was 1.6.

As for HVTHWMGQPFNSNDRNTACHHGLV [D13N], the protein stability index stood at 2.11.

As for HVTHWMGQPFNSCDRNTACHHGLV [D13C], the protein stability index was determined as 1.8.

Take HVTHWMGQPFNSDDRNTACHHKLV [G22K]: the protein stability index came out at 2.

For the variant HVTHWMGQPFNSDDRNTACHHALV [G22A], the protein stability index was found to be 2.49.

For the variant HVTHWMGQPFNSDDRNTACHHPLV [G22P], the protein stability index came to 2.05.

On to HVTHWMGQPFNSDDRNTACHHWLV [G22W], for which the protein stability index came out at 2.38.

Turning to HVTHWMGQPFNSDDRNTACHHNLV [G22N], the protein stability index was found to be 1.99.

With HVTHWMGQPFNSDDRNTACIHGLV [H20I], the protein stability index came to 2.13.

Take HVTHWMGQPFNSDDRNTACMHGLV [H20M]: the protein stability index amounted to 1.79.

Take HVTHWMGQPFNSDDRNTACEHGLV [H20E]: the protein stability index amounted to 2.44.

With HVTHWMGQPFNSDDRNTACWHGLV [H20W], the protein stability index came out at 2.46.

In the case of HVTHWMGQPFNSDDRNTACSHGLV [H20S], the protein stability index was 2.25.

Consider HVTHWMGQPFNSDDRNTACTHGLV [H20T], for which the protein stability index was determined as 2.25.

Take HVTHWMGQPFNSDDRNTACFHGLV [H20F]: the protein stability index stood at 2.3.

On to HVTHWMGQPFNSDDRNTACVHGLV [H20V], for which the protein stability index was 2.34.

Consider HVTHWMGQPFNGDDRNTACHHGLV [S12G], for which the protein stability index was 2.34.

In the case of HVTHWMGQPFNCDDRNTACHHGLV [S12C], the protein stability index stood at 1.51.

HVTHWMGQPFNVDDRNTACHHGLV [S12V]: the protein stability index was 1.8.

As for HVTHWMGQPFNDDDRNTACHHGLV [S12D], the protein stability index stood at 2.62.

In the case of HVTHWMGQPFNPDDRNTACHHGLV [S12P], the protein stability index is 2.29.

On to HVTHWMGQPFNLDDRNTACHHGLV [S12L], for which the protein stability index worked out at 2.11.

HVTHWMGQPFNKDDRNTACHHGLV [S12K]: the protein stability index was 2.51.

In the case of HVTHNMGQPFNSDDRNTACHHGLV [W5N], the protein stability index amounted to 3.86.

Turning to HVTHTMGQPFNSDDRNTACHHGLV [W5T], the protein stability index amounted to 3.43.

For HVTHKMGQPFNSDDRNTACHHGLV [W5K], the protein stability index came to 3.12.

With HVTHPMGQPFNSDDRNTACHHGLV [W5P], the protein stability index stood at 3.3.

For the variant HVTHAMGQPFNSDDRNTACHHGLV [W5A], the protein stability index was 3.26.

As to HVTHVMGQPFNSDDRNTACHHGLV [W5V], the protein stability index came out at 3.55.

With HVTHCMGQPFNSDDRNTACHHGLV [W5C], the protein stability index amounted to 3.33.

As to HVTVWMGQPFNSDDRNTACHHGLV [H4V], the protein stability index was found to be 2.08.

With HVTKWMGQPFNSDDRNTACHHGLV [H4K], the protein stability index turned out to be 2.18.

HVTAWMGQPFNSDDRNTACHHGLV [H4A]: the protein stability index came to 1.47.

On to HVTSWMGQPFNSDDRNTACHHGLV [H4S], for which the protein stability index came out at 2.64.

On to HVTQWMGQPFNSDDRNTACHHGLV [H4Q], for which the protein stability index was 1.78.

HVTCWMGQPFNSDDRNTACHHGLV [H4C]: the protein stability index worked out at 2.49.

As to HVTHWMGQPFNSDDRNTACHHGQV [L23Q], the protein stability index came out at 2.38.

On to HVTHWMGQPFNSDDRNTACHHGCV [L23C], for which the protein stability index is 1.99.

On to HVTHWMGQPFNSDDRNTACHHGFV [L23F], for which the protein stability index stood at 2.02.

As to HVTHWMGQPFNSDDRNTACHHGEV [L23E], the protein stability index was determined as 2.75.

HVTHWMGQPFNSDDRNTACHHGHV [L23H]: the protein stability index was 2.46.

HVTHWMGQPFNSDDANTACHHGLV [R15A]: the protein stability index came out at 2.22.

As to HVTHWMGQPFNSDDVNTACHHGLV [R15V], the protein stability index was found to be 2.11.

As for HVTHWMGQPFNSDDPNTACHHGLV [R15P], the protein stability index amounted to 1.82.

On to HVTHWMGQPFNSDDYNTACHHGLV [R15Y], for which the protein stability index is 1.74.

As for HVTHWMGQPFNSDDENTACHHGLV [R15E], the protein stability index worked out at 2.32.

As for HVTHWMGQPFNSDDLNTACHHGLV [R15L], the protein stability index worked out at 2.29.

As to HVTHWMGQPFNSDDTNTACHHGLV [R15T], the protein stability index was determined as 2.31.

On to HVTHWMGQPFNSDDKNTACHHGLV [R15K], for which the protein stability index came out at 2.11.

In the case of HVTHWMGQPFNSDDMNTACHHGLV [R15M], the protein stability index was found to be 1.83.

Consider HVTHWMGQPFNSDDINTACHHGLV [R15I], for which the protein stability index was 1.95.

On to HVTHWMGQPFNSDDRGTACHHGLV [N16G], for which the protein stability index turned out to be 1.97.

For the variant HVTHWMGQPFNSDDRYTACHHGLV [N16Y], the protein stability index was 2.32.

For the variant HVTHWMGQPFNSDDRTTACHHGLV [N16T], the protein stability index was determined as 1.99.

Take HVTHWMGQPFNSDDRRTACHHGLV [N16R]: the protein stability index stood at 2.16.

Regarding HVTHWMGQPFNSDDRVTACHHGLV [N16V], the protein stability index turned out to be 1.22.

Consider HVTHWMGQPFNSDDRITACHHGLV [N16I], for which the protein stability index stood at 2.13.

HVTHWMGQPFNSDDRHTACHHGLV [N16H]: the protein stability index came out at 2.43.

On to HVTHWMGQPFNSDDRCTACHHGLV [N16C], for which the protein stability index is 2.54.

As for HVTHWMGQPFNSDDRQTACHHGLV [N16Q], the protein stability index turned out to be 2.67.

On to HVTHWRGQPFNSDDRNTACHHGLV [M6R], for which the protein stability index worked out at 2.63.

Regarding HVTHWCGQPFNSDDRNTACHHGLV [M6C], the protein stability index came to 2.86.

Turning to HVTHWHGQPFNSDDRNTACHHGLV [M6H], the protein stability index was 2.34.

Turning to HVTHWVGQPFNSDDRNTACHHGLV [M6V], the protein stability index amounted to 2.48.

For HVTHWKGQPFNSDDRNTACHHGLV [M6K], the protein stability index is 3.28.

Take HVTHWPGQPFNSDDRNTACHHGLV [M6P]: the protein stability index worked out at 2.44.

As for HVTHWFGQPFNSDDRNTACHHGLV [M6F], the protein stability index amounted to 2.02.

Consider HVTHWAGQPFNSDDRNTACHHGLV [M6A], for which the protein stability index came to 2.75.

As for HVTHWGGQPFNSDDRNTACHHGLV [M6G], the protein stability index came to 2.16.

Regarding HQTHWMGQPFNSDDRNTACHHGLV [V2Q], the protein stability index stood at 2.87.

Regarding HRTHWMGQPFNSDDRNTACHHGLV [V2R], the protein stability index came to 3.05.

The values are drawn from the supplement of paper PMC10567573.
